Results: the RNAGym collection of RNA variant scans (doi:10.1073/pnas.2313332121)

B1: TPR t1 (parent)
chain: GACCAAUCUGCCCUCAGAGCUCGAGAACAUCUUCGGAUGCAGAGGAGGCAGGCUUCGGUGGCGCGAUAGCGCCAACGUCCUCAACCUCCAAUGCAUCCCACCACAUGAUGAUGCCUGAAGAGCCUUGGUUUUUUG

Variants of: B1
Assay: polymerase ribozyme fitness, log enrichment relative to wild type (log ratio); higher = more active; in vitro selection for triplet polymerase activity
How it was run: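 The heterodimeric triplet polymerase ribozyme's subunits were each mutagenized into PCR-built libraries and transcribed. Every library was selected once, in triplicate, by annealing with a biotinylated primer, the partner subunit and triplets, incubating frozen at −7 °C, gel-excising extended constructs, capturing on streptavidin beads and running RT-PCR. Input and output libraries were Illumina-sequenced, with genotypes kept only at ≥10 input reads and ≥1 read per output. Fitness, from inverse-variance-weighted replicate averages, is the base-2 logarithm of genotype enrichment over wild-type enrichment.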

| Variant | polymerase ribozyme fitness (log ratio) |
| --- | --- |
| GACCAAUCUGCCCUAAGAGCUCGAGAACAUCUUCGGAUGCAGAGGAGGCAGGCUUCGGUGGCGCGAUAGCGCGAACGUCCUCAACCUCCAAUGCAUCCCACCACAUGAUGAUGCCUGAAGAGCCUUGGUUUUUUG [C15A C73G] | -3.16 |
| GACCAAUCUGCCCUAAGAGCUCGAGAACAUCUUCGGAUGCAGUGGAGGCAGGCUUCGGUGGCGCGAUAGCGCCAACGUCCUCAACCUCCAAUGCAUCCCACCACAUGAUGAUGCCUGAAGAGCCUUGGUUUUUUG [C15A A43U] | -3.28 |
| GACCAAUCUGCCCUAAGAGCUUGAGAACAUCUUCGGAUGCAGAGGAGGCAGGCUUCGGUGGGGCGAUAGCGCCAACGUCCUCUACCUCCAAUGCAUCACACCACAUGAUGAUGCCUGAAGAGACAUGGUUUUUUG [C15A C22U C62G A83U C98A C123A U125A] | -6.9 |
| GACCAAUCUGCCCUAAGAGCUCGAGAACAUCUUCGGAUGCAGAGGAGGCAGGCUUCGGUGGCGUGAUAGCGCCAACGUCCUCAACCUCCAAUGCAUCCCACCACAUGAUGAUGCCUGAAGAGCCUUGGUUUUUUG [C15A C64U] | -2.36 |
| GACCAAUCUGCCCUAAGAGCUCGAGAAGAUCUUCGGAUGCAGAGGAGGCAGGCUUCGGUGACGCGAUAGCGCCAACGUCCUCAACCUCCAAUGCAUCCCACCACAUGAUGAUGCCUGAAAAGCCUUGGUUUUUUG [C15A C28G G61A G120A] | -2.11 |
| GACCAAUCUGCCCUAAGAGCUCGAGAACAUCUUCGGUUGCAGAGGAGGCAGCCUUCGGUGGCACGAUAGCGCCAACGUCCUCAACCACCAAUGCAUCCCACCACAUGAUGAUGCCUGAACAGCCUUGGUUUUUUG [C15A A37U G52C G63A U87A G120C] | -4.33 |
| GACCAAUCUGCCCUAAGAGCUCGAGAACAUCUUCGGAUGCAGAGGAGGCAGGCUUCGGUGGCGCGAUAGCGCCAACGUCCUCAACAUCCAAUGCAUCCCACCACAUGAUGAUGCCUGAAGAGCCUUGGAUUUUUG [C15A C86A U129A] | -4.12 |
| GACCAAUCUGCCCUAAGAGCUCGAGAACAUCUUCGGAUGCAGAGGAGGCAGGCUUCGGUGGCGUGAUAGCGCCAACGUCCUCAACCUCCAAUGCAUCCCACCACAUGAUCAUGCCUGAAGAGCCUUGGUUUUUUG [C15A C64U G110C] | -6.12 |
| GACCAAUCUGCCCUAAGAGCUCGAGAACAUCUUCGGAUGCAGAGGAGGCAGGCUUCGGUGGUGCGAUAGCGCCAACGUCCUCAGCCUCCAAUGUAUCCCACCACAUGAUGAUGCCUGAAGAGCCUUGGUUUUUUG [C15A C62U A84G C94U] | -3.06 |
| GACCAAUCUGCCCUAAGAGCUCGAGAACAUCUUCGGAUGCAGAGGAGGCAGGUUUCGGUGGCGCGUUAGCGCCAACGUCCUCAACCUCCAAUGCAUCCCACCACAUGAUGAUGCCUGAAGAGCCUUGGUUUUUUG [C15A C53U A66U] | -4.71 |
| GACCAAUCUGCCCUAAGAGCUCGAGAACAUCUUCGGAUGCAGAGGAGGCAGGUUUCGGUGGCGCGAUAGCGCCAACGUCCUCAACCUCCAAUGCAUCCCACCACAUGAUGAUGCCUGAAGAGCCUUGGUUUUUUG [C15A C53U] | -1.61 |
| GACCAAUCUGCCCUAAGAGCUCGAGAACAUCUUCGGAUGCAGAGGAGGCAGGCUUCGGUGGCGCGAUAGCGCCAACGUCCUCAACCUCCAAUGUAUCCCACCACAUGAUGAUGGCUGAAGAGCCUAGGUUUUUUG [C15A C94U C114G U126A] | -5.6 |
| GACCAAUCUGCCCUAAGAGCUCGAGAACAUCUUCGGAUGCAGAGGCGGCAGCCUUCGGUGGCGCGAUAGCGCCAACGUCCUCAACCUCCAUUGCAUCCCACCACAUGAUGAUGCCUGAAGAGCCUUGGGUUUUUG [C15A A46C G52C A91U U129G] | -6.42 |
| GACCAAUCUGCCCUAAGAGCUCGAGAACAUCUUCGGAUGCAGAGGAGGCAGGCUUCGGUGGUGCGAUAGCGCCAACGUCCUCAACCUCCAAUGCAUCCCACCACAUGAUGAUGCCUGAAGAGCCUUGGUUUUUUG [C15A C62U] | -2.04 |
| GACCAAUCUGCCCUAAGAGCUCGAGAACAUCUUCGGAUGCAGAGGAGGCAGGCUUCGGUGGGGCGAUAGCGCCAACGUCCUCAACCUCCAACGCAUCCCACCACAUGAUGAUGCCUGAAGUGCCUUGGUUUUUUG [C15A C62G U92C A121U] | -4.25 |
| GACCAAUCUGCCCUAAGAGGUCGAGAACAUCUUCGGAUGCAGAGGAGGCAGGCUUCGGUGGCGCGAUAGCUCCAACGUCCUCAACCUCCACUGCAUCGCACCACAUGAUGAUGCCUGAAGAGUCUUGGUUUUGUG [C15A C20G G71U A91C C98G C123U U133G] | -4.96 |
| GACCAAUCUGCCCUAAGAGCUCGAGAACAUCUUCGGAUGCAGAGGAGGCAGGCUUCGGUGGCGCGAUAGCGCCAACGUCCUCAACCUGCAAUGCAUCCCACCACAUGAUGAUGCCUGAAGAGCCUUGGUUUUUUG [C15A C88G] | -2.59 |
| GACCAAUCUGCCCUAAGAGCUCGAGAACAUCUUCGGAUGCAGAGGAGGCAGGCUUCGGUGGCGCGAUAGCGCCAACGUCCUCAACCUACAAUGCAUCCCACCACAUGAUGAUGCCUGAAGAGCCUUGGUUUUUUG [C15A C88A] | -1.56 |
| GACCAAUCUGCCCUAAGAGCUCGAGAACAUCUUCGGAUGCAGAGGUGGCAGGCUUCGGUGGCGCGAUAGCGCCAACUUCCUCAACCUCCAAUGCAUCCCACCACAUGAUGAUGCCUGAAGAGCCUUGGUUUUUUG [C15A A46U G77U] | -2.81 |
| GACCAAUCUGCCCUAAGAGCUCGAGAACAUCUUCGGAUGCAGAGGAGGCAGGCUUCGGUGGCGCGAUAGCGCGAACGUCCUCAACCUCCAAUGCAUCCCACCACAUGAUGAUGCCUGAAGAGACUUGGUUUUUUG [C15A C73G C123A] | -2.17 |
| GACCAAUCUGCCCUAAGAGCUCGAGAACAUCUUCGGAUGCAGAGGAGGCAGGCUUCGGUGGCGCGAUAGGGCCAACGUCCUCAACCUCCAAUGCAUCCCACCACAUGAUGAUGCCUGAAGAGCCUUGGUUUUUUG [C15A C70G] | -3.97 |
